Results as given in patent US10731143B2, “Methods and compositions for stabilizing trans-splicing intein modified proteases” (AGRIVIDA, INC., priority 2014, dated 2020).

B1: Savinase: extracellular alkaline protease from Bacillus lentus (Uniprot P29600), SEQ ID NO: 6; Novozymes stock, intein unmodified reference enzyme (protein, listed as Bacillus lentus)
chain: MKKPLGKIVASTALLISVAFSSSIASAAEEAKEKYLIGFNEQEAVSEFVEQVEANDEVAILSEEEEVEIELLHEFETIPVLSVELSPEDVDALELDPAISYIEEDAEVTTMAQSVPWGISRVQAPAAHNRGLTGSGVKVAVLDTGISTHPDLNIRGGASFVPGEPSTQDGNGHGTHVAGTIAALNNSIGVLGVAPSAELYAVKVLGASGSGSVSSIAQGLEWAGNNGMHVANLSLGSPSPSATLEQAVNSATSRGVLVVAASGNSGAGSISYPARYANAMAVGATDQNNNRASFSQYGAGLDIVAPGVNVQSTYPGSTYASLNGTSMATPHVAGAAALVKQKNPSWSNVQIRNHLKNTATSLGSTNLYGSGLVNAEAATR
modifications: (1)..(380) Savinase P29600

How the values were obtained:
[1] = Formulation protocols and long term stability in 60% Detergent-1 under accelerated ageing; assay type: physicochemical; details: 1M KCl, sequential mixing of NI and IC into 60% Detergent-1
Protocol: FIG. 12 illustrates comparison of alternative protocols to detergent formulate NI and IC and evaluated formulations for long term stability. Two formulation protocols as follows were compared: 1) formulation by sequential mixing of unsalted NI and IC to the detergent (detergent+NI+IC) and 2) formulation of KCl stabilized (NI+IC) premix to detergent. Detergent-1 was used at 60% (v/v) in two formats, either without supplement (−), or KCl supplement was added to 1M final concentration (+). Purified NI and IC were each used at benchmarking conc. to 1% (v/v) Savinase, at 38.1 μmolar concentration each. (NI+IC) premix was prepared and formulated to the detergent essentially as described in Example 7. Formulations were stored at 37° C. under accelerated ageing conditions and storage stabilities were tested by assaying retention of dilution inducible iProtease activity over 8 weeks at t=0, 1, 3, 6 and 8 weeks in storage. Dilution inducible activity was assayed in sequential dilutions to assay buffer, from 40- to 5120-fold dilutions as described in Example 7. iProtease activities at the 2 min time point reads of the 1:1280-fold dilutions were normalized to dilution induced iProtease activity of the (NI+IC) premix in detergent without salt at t=0 and were plotted.

[2] = Protease activity of KCl stabilized (NI+IC) premix and Savinase assayed in KCl; assay type: biochemical; details: formulated to 1M KCl aqueous buffer, diluted in KCl
Protocol: iProtease activity was benchmarked to 1% (v/v) Savinase. Formulation of (NI+IC) and Savinase to 1M KCl aqueous buffer was the same as in Example 1, but enzyme activity was assayed in 2M KCl as follows: In a clear flat-bottomed half-volume 96 well plate, row A wells were preloaded with […] pH˜9.0, 50 μl 4 M KCl, and 35 μL H2O. Rows B-H were preloaded with 5 μl 1×BR buffer pH˜9.0, 25 μL 4 M KCl, and 20 μL H2O. 5 μl (NI+IC) formulation was added to row A, mixed by pipetting, then 50 μL of this 20× diluted sample was added to the 50 μl salt, buffer, and water in row B and mixed. […] This process of 2× serial dilutions was repeated for rows C-H. All samples were diluted an addition 2× by adding 50 μL 500 μM suc-FAAF-pNA (in 20% DMSO) substrate, yielding samples diluted from 40× in row A to 5120× in row H. Protease activity was assayed by reading absorbance at 400 nm at 30° C. FIGS. 9A-9B illustrate that KCl stabilized (NI+IC) premix has no enzyme activity. FIG. 9A illustrates iProtease activity of the 80-fold diluted (NI+IC) premix. […].

[3] = Stability of stain removal activity in three detergents under accelerated ageing; details: 37° C., up to 4 weeks, normalized to t=0
Protocol: Formulations made for Example 15 were stored under accelerated ageing conditions at 37° C., and were evaluated for stain removal activity at five time points, at t=0, 1, 2, 3, and 4 weeks in storage.
The blood/milk/ink stained fabric of EMPA 117 was used in wash tests as described in Example 15. FIG. 17 illustrates stain removal stability under accelerated ageing conditions in three detergents. Three replicate washes were performed from each formulation at each time point. Referring to this figure, white light reflectance of the washed EMPA117 fabrics were normalized to their corresponding t=0 samples and were graphed.

[4] = Suppression of protease activity in Detergent-1 formulations; assay type: biochemical; details: formulations in Detergent-1
[5] = Stability of dilution inducible protease activity in three detergents under accelerated ageing; assay type: physicochemical; details: Savinase without the stabilizer (dialyzed), 37° C., up to 4 weeks
Protocol: Detergents were: Detergent-1, Detergent-2 and Detergent-3. For benchmarking 1% (v/v) Savinase was used, but instead of formulating the inhibitor stabilized form, the inhibitor was first removed by three steps of overnight dialysis of 0.5 mL Savinase against 5 L mTSB buffer at 4° C. using a Tube-O-Dialyzer Medi (4000 Da; GBiosciences). Volume of dialyzed Savinase in mTSB were adjusted to 1.5 mL, and 3 μL dialyzed aliquot treated with equal volume of 4M KCL was used to formulate 100 μL detergent to get 1% (v/v) of the Savinase. Sample handling was essentially the same as in Example 8, except that formulations were made to 65% detergents supplemented with KCL to 1M final conc.
Purified NI and IC were used at equimolar conc. to 1% (v/v) dialyzed Savinase, at […] concentration each. (NI+IC) premix in 2M KCl was prepared as described in Example 7, and formulations were made to 65% detergents supplemented with KCl to 1M final conc.
Detergent formulations were stored under accelerated ageing conditions at 37° C. Residual protease activities were assayed at five time points, at t=0, 1, 2, 3, and 4 weeks, in serial dilutions to assay buffer as described before. The 2 min reads of 1:2560-fold dilutions of each formulation was normalized to the t=0 as 100% and graphed. […]

Molecule	boost of dilution inducible iProtease activity by supplementing the detergent [1]	effect of 1M KCl on protease activity [2]	stain removal activity after storage [3]	effect of Detergent-1 on protease activity [4]	loss of initial enzyme activity [5]
[Cl-].[K+] [KCl, potassium chloride]	approximately 3 fold	–	–	–	–
B1	–	did not inhibit protease activity	full stain removal activity	did not suppress	25-70%
